According to PMC9974466 (Proceedings of the National Academy of Sciences of the …, 2023):
“Also recorded” adds a separate entry of the source. Read-outs that look alike come from different tables or passages of the source. Values belong to the molecule of their own block, whether it stands above or below them. Ends that are not written are not given here.

Tests used:
[1] = target: T1, human PTHR1 (SGS-72 cells, SaOS-2 derived) (Homo sapiens, UniProt Q03431); experiment: PTH-stimulated cAMP formation in SGS-72 reporter cells (Glosensor); format: cell-based; conditions: for Biological activity relative to corresponding PTH(1-34) analog (in words): compared with PTH(1-34) analogs
T1 construct: SGS-72 cells, i.e., human osteosarcoma SaOS-2 cells stably expressing the Glosensor cAMP reporter; endogenous in cells; host or cells: SGS-72 (human osteosarcoma SaOS-2-derived)
T1 sequence (Q03431 27-593): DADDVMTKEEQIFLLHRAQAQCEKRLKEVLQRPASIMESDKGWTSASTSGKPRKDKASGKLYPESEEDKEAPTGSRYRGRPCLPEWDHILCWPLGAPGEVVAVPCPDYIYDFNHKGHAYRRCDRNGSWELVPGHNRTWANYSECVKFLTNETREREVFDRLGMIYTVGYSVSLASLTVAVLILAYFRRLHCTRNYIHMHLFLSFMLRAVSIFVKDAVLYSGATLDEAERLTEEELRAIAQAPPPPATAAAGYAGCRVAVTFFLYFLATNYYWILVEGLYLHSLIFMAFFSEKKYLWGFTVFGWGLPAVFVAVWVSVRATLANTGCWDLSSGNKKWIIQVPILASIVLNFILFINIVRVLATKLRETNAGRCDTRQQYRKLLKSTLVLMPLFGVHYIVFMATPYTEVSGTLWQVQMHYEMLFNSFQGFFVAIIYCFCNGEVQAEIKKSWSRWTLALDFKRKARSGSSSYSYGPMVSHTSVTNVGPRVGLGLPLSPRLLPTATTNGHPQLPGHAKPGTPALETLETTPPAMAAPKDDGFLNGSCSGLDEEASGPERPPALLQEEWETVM
Method: (§1) SGS-72 cells, i.e., human osteosarcoma SaOS-2 cells stably expressing the Glosensor cAMP reporter, were maintained in modified McCoy’s 5A medium [15% FBS, 1% penicillin/streptomycin, and 1% nonessential amino acids, as described ([29])]. GP2.3 cells, i.e., HEK293 cells stably expressing the human PTHR1 and the Glosensor cAMP reporter, were maintained in DMEM (10% FBS, 1% penicillin/streptomycin), as described ([24]). Cells were seeded into 96‐well white plates (40,000 cells/100µL/well); 24 to 48 h after confluency, the wells were rinsed with 100 µL carbon dioxide-independent culture medium (CIDB; Life Technologies) containing 0.1% bovine serum albumin (BSA), which was then replaced with 90 µL of luciferin (0.5 mM in CIDB) for 15 min before adding 10 µL of increasing concentrations of PTH analogs diluted in CIDB or 10 µL of CIDB, and then measuring cAMP‐dependent luminescence at 2‐min intervals using a PerkinElmer Envision plate reader (PerkinElmer), as described ([24]). […] GP2.3 cells were also used for the evaluation of CM from transfected COS-7 cells; PTH(1-84) served as control.
SGS-72 cells were used for assessing PTH-stimulated cAMP formation. 10 µL of increasing concentrations of [S1]PTH(−6 to +34) or [P1]PTH(−6 to +34) before and after incubation with furin were diluted in CIDB buffer.

human PTHR1 = target: T2, human PTHR1 (Homo sapiens, UniProt Q03431); experiment: PTH-stimulated cAMP formation in GP2.3 reporter cells (Glosensor); format: cell-based; conditions: GP2.3 cells; synthetic peptides; mean ± SEM, n = 3; maximum luminescence 20 to 23 min
T2 construct: expressed in transfected cells; host or cells: GP2.3 (HEK293-derived)
T2 sequence (Q03431 27-593): T1 sequence (Q03431 27-593)
Method: as §1

[2] = test system: anti-[P1]PTH(−6 to +3)^Biotin antibody; experiment: Epitope characterization ELISA with anti-[P1]PTH(−6 to +3)^Biotin capture antibody; format: binding
From the text: For additional characterization of our anti-[P1]PTH(−6 to +3) antibody, we biotin-labeled this antibody for use as capture antibody (anti-[P1]PTH(−6 to +3)^Biotin antibody) in combination with the HRP-labeled detection antibody from the intact PTH assay (Immutopics) that is directed against PTH(13-34) (SI Appendix, Fig. S3).
(§2) pro[P1]PTH(−6 to +3) was conjugated to SulfoLink coupling gel via the C-terminal cysteine (PIERCE) for affinity purification of the rabbit antibodies, which were then HRP-labeled using EZ-Link Plus Activated Peroxidase Kit (Thermo Fisher Scientific), following the manufacturer’s protocol. The anti-pro[P1]PTH(−6 to +3) antibody was also conjugated to biotin using EZ-LinkTM Sulfo-NHS-LC-Biotinylation Kit (Thermo Fisher Scientific), following the manufacturer’s protocol, except using 40-fold instead of 20-fold excess of biotin. After biotin coupling, 15% of rabbit serum were added to the biotinylated antibody [anti-pro[P1]PTH(−6 to +3)^Biotin].
100 Defining the epitope of the antibody raised against [P1]PTH(-6 to +15) that was affinity purified with
101 immobilized [P1]PTH(-6 to +3).
102 The anti-[P1]PTH(-6 to +3) antibody was coupled to biotin (anti-[P1]PTH(-6 to +3)Biotin antibody) and
103 used as capture antibody in combination with the detection anti-PTH(13-34) antibody provided in
104 the intact PTH assay (Immutopics). Epitope of the affinity purified anti-[P1]PTH(-6 to +3)Biotin
105 antibody was partially defined by using [P1]PTH(-6 to +34) and [S1]PTH(-6 to +34), as well as
111 recognized by the anti-[P1]PTH(-6 to +3)Biotin antibody resides predominantly in the -6 to -4 region.
(1 picture or pasted object on this page, not shown here)

furin = target: T3, furin (Homo sapiens, UniProt P09958); experiment: Assessment of PTH analogs cleavage by furin (HPLC and MassSpec); format: biochemical; conditions: peptide 10 µg with furin 8U, HEPES buffer pH 7.4, RT, 60 min, final volume 30 µL; HPLC C18 4-76% ACN/0.05% TFA over 40 min and MassSpec
T3 construct: purchased New England Biolabs
Method: [S1]PTH(−6 to +34) or [P1]PTH(−6 to +34) (10 µg/10 µL 10 mM acetic acid) was incubated with furin (8U/4 μL) (New England Biolabs) and furin buffer (50 mM HEPES (4-(2-hydroxyethyl)-1-piperazineethanesulfonic acid)–KOH (potassium hydroxide) (pH 7.4), 150 mM NaCl, 5 mM MgCl2, 16 mM imidazole, 2% glycerol, 0.15 mM EGTA, 500 μM ATP, 0.5% Triton-X100, 2 mM CaCl2, and 2 mM β-mercaptoethanol) (RT, 60 min; final volume 30 µL) (New England Biolabs), as recommended by the manufacturer, before adding EGTA (100 μM, 3 μL). In some experiments, 1 μL of the reaction buffer was replaced with the furin inhibitor Decanoyl-RVKR-CMK (Tocris Bioscience; 50 μM in water). To assess cleavage, 5 µL of furin-treated or untreated peptides (1.5 µg each) was loaded onto a C18 column (2.1 mm × 150 mm, Higgins Analytical, Inc.), and a gradient of 4 to 76% ACN/0.05% TFA over 40 min (200 µL/min) was applied. To determine the molecular weight, 10 µL of furin-treated or untreated peptides was loaded onto a C18 ZipTip (Millipore Corporation) that had been rinsed with 100% ACN/0.01% TFA (2 × 20 μL) followed by equilibration with H2O/0.01% TFA (5 × 20 μL). Peptide elution with 100% ACN/0.01% TFA was followed by speed vac and MassSpec analysis.

[3] = test system: anti-pro[P1]PTH^HRP antibody; experiment: pro[P1]PTH immunoassay with anti-pro[P1]PTH^HRP detection antibody; format: binding
From the text: To allow quantification of pro[P1]PTH in CM and in plasma of our patients with the homozygous P1 mutation, we replaced the detection antibody in an intact PTH assay (Immutopics) with a horseradish peroxidase (HRP)-labeled antibody raised against pro[P1]PTH(−6 to +15), which was affinity purified with pro[P1]PTH(−6 to +3) (anti-pro[P1]PTH^HRP antibody) (Materials and Methods).
as §2, with “+3)^Biotin]. […]” for “+3)^Biotin].”

[4] = anti-[P1]PTH(−6 to +3)^Biotin capture, anti-PTH(13-34) HRP detection, n = 2 to 4

T3 sequence (P09958 108-595 limits assumed): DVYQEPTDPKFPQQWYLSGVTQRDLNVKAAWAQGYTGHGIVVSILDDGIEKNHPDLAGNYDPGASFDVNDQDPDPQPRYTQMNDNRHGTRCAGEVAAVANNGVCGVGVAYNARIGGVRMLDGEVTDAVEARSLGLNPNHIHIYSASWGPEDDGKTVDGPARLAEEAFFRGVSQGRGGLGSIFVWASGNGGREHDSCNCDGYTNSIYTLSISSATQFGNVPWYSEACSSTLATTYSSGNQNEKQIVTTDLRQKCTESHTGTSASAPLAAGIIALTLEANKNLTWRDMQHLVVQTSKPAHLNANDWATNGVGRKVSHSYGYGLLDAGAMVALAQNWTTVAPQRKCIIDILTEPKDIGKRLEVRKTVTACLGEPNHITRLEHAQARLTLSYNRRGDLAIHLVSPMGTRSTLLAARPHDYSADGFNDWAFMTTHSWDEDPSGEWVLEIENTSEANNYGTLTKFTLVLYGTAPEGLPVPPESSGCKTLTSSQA

EC50 ([1]; synthetic peptides, mean ± SEM, n = 3 (Fig. 2B), read-out: EC50 for cAMP formation): 0.5 ± 0.3 nM | EC50 (human PTHR1): 3.2 ± 0.9 nM
Molecule: CC[C@H](C)[C@H](NC(=O)[C@H](CCC(=O)O)NC(=O)[C@H](CO)NC(=O)[C@@H](NC(=O)[C@@H]1CCCN1)C(C)C)C(=O)N[C@@H](CCC(N)=O)C(=O)N[C@@H](CC(C)C)C(=O)N[C@@H](CCSC)C(=O)N[C@@H](Cc1c[nH]cn1)C(=O)N[C@@H](CC(N)=O)C(=O)N[C@@H](CC(C)C)C(=O)NCC(=O)N[C@@H](CCCCN)C(=O)N[C@@H](Cc1c[nH]cn1)C(=O)N[C@@H](CC(C)C)C(=O)N[C@@H](CC(N)=O)C(=O)N[C@@H](CO)C(=O)N[C@@H](CCSC)C(=O)N[C@@H](CCC(=O)O)C(=O)N[C@@H](CCCNC(=N)N)C(=O)N[C@H](C(=O)N[C@@H](CCC(=O)O)C(=O)N[C@@H](Cc1c[nH]c2ccccc12)C(=O)N[C@@H](CC(C)C)C(=O)N[C@@H](CCCNC(=N)N)C(=O)N[C@@H](CCCCN)C(=O)N[C@@H](CCCCN)C(=O)N[C@@H](CC(C)C)C(=O)N[C@@H](CCC(N)=O)C(=O)N[C@@H](CC(=O)O)C(=O)N[C@H](C(=O)N[C@@H](Cc1c[nH]cn1)C(=O)N[C@@H](CC(N)=O)C(=O)N[C@@H](Cc1ccccc1)C(N)=O)C(C)C)C(C)C [[P1]PTH(1-34)]

Molecule: PTH(2-34): synthetic amino-terminally shortened peptide (VSEIQLMHNLGKHLNSMERVEWLRKKLQDVHNF-NH2; UniProt P01270 33-65, looked up, fragment)
Detection / cross-reactivity (in words) [2, 4]: only minimal cross-reactivity at very high concentrations

Molecule: PTH(3-34): synthetic amino-terminally shortened peptide (SEIQLMHNLGKHLNSMERVEWLRKKLQDVHNF-NH2; UniProt P01270 34-65, looked up, fragment)
Detection / cross-reactivity (in words) [2, 4]: not detected at all

Molecule: PTH(4-34): synthetic amino-terminally shortened peptide (EIQLMHNLGKHLNSMERVEWLRKKLQDVHNF-NH2; UniProt P01270 35-65, looked up, fragment)
Detection / cross-reactivity (in words) [2, 4]: not detected at all

Biological activity relative to corresponding PTH(1-34) analog (in words) [1]: more than an order of magnitude lower | Maximum cAMP formation relative to [S1]PTH(1-34) ([1]; furin-treated, maximum at 10^−7 M): 115.7 ± 8.6% | EC50 ([1]; no furin, [S1] series (Fig. 3A), n = 2, top constrained to maximum cAMP by PTH(1-34) at 10^−7 M, read-out: EC50 for cAMP formation, without furin (curve top constrained)): 16.4 ± 4.7 nM | EC50 ([1]; with Decanoyl-RVKR-CMK (3 μL of 50 μM), Fig. 3A, n = 2, top constrained to maximum cAMP by PTH(1-34) at 10^−7 M, read-out: Estimated EC50 for cAMP formation, with furin inhibitor): 272 ± 166 nM
Molecule: [S1]PTH(−6 to +34): synthetic proPTH(−6 to +34) with serine at position 1
Cleavage by furin (furin): after incubation with furin, most of the peptide eluted at fraction #29 (55% ACN) | Detection / cross-reactivity (in words) [2, 4]: detected equivalently | Detection / cross-reactivity (in words) ([2]; anti-[P1]PTH(−6 to +3)^Biotin capture, anti-PTH(13-34) HRP detection, n = 2 to 4, listed as [S1]PTH(-6 to +34)): detected equally well | Reduction of detection after incubation with furin ([2]; furin-treated): at least 10 fold | Biological activity relative to corresponding PTH(1-34) analog (in words) ([1]; listed as pro[S1]PTH(−6 to +34)): much less bioactivity than the corresponding PTH(1-34) analogs

Half maximum binding of the anti-pro[P1]PTH^HRP detection antibody ([3]; capture anti-PTH(39-84), HRP detection, CM standard): 1,032 pg/mL | Half-maximal binding [2, 4]: 1,330 pg/mL
B1: pro[P1]PTH: mutant pro-hormone secreted by COS-7 cells expressing prepro[P1]PTH(1-84) and present in patients' plasma (protein, UniProt P01270 26-115, looked up, variant S1P)
pro-form: KSVKKRPVSEIQLMHNLGKHLNSMERVEWLRKKLQDVHNFVALGAPLAPRDAGSQRPRKKEDNVLVESHEKSLGEADKADVNVLTKAKSQ
modifications: pro-form
notes: mutant pro-hormone secreted by COS-7 cells expressing prepro[P1]PTH(1-84) and present in patients' plasma

B2: SVSEIQ … LMHNLGKHLNSMERVEWLRKKLQDVHNFVALGAPLAPRDAGSQRPRKKEDNVLVESHEKSLGEADKADVNVLTKAKSQ (protein, UniProt P01270 32-115, looked up)
Parathyroid hormone: SVSEIQLMHNLGKHLNSMERVEWLRKKLQDVHNFVALGAPLAPRDAGSQRPRKKEDNVLVESHEKSLGEADKADVNVLTKAKSQ
modifications: Parathyroid hormone
notes: Recombinant PTH(1-84) was from Chugai Pharmaceutical Co., Ltd
Detection / cross-reactivity in pro[P1]PTH assay ([3]; vs. pro[P1]PTH, up to very high concentrations): barely detected; also recorded: minimal even at very high concentrations; also recorded: extremely low
